Experimental data: patent US20200207854A1 (SYNTIMMUNE, published 2020)

Legend:
[1] = target: monomeric His-tagged human FcRn (JTA), produced in-house (human) (UniProt P55899); assay: SPR, IgG amine-coupled, monomeric His-hFcRn injected, pH 6.0; first of two values in the cell
[2] = target: monomeric His-tagged human FcRn (JTA), produced in-house (human) (UniProt P55899); assay: SPR, IgG amine-coupled, monomeric His-hFcRn injected, pH 6.0; second value (steady-state affinity model by the footnote)
[3] = target: monomeric His-tagged human FcRn (JTA), produced in-house (human) (UniProt P55899); assay: SPR, IgG amine-coupled, monomeric His-hFcRn injected, 1:1 Langmuir, pH 6.0
[4] = target: T1, recombinant human FcRn (Sino Biological Inc. Cat. No. CT009-H08H) (human, UniProt P55899 24-297; P61769 21-119); assay: competition ELISA vs biotinylated human serum IgG, captured FcRn, pH 6.0
T1 construct: Bought protein; also called immobilized FcRn; hFcRn (SINO)
Method: The following day, 0.5 μg/ml recombinant human FcRn (Sino Biological Inc. cat. no. CT009-H08H) diluted in PBS pH 7.4 was added to the wells and incubated for one hour at 37° C. After washing the plates 3× with PBST pH 7.4, the plates were blocked with PBSM pH 7.4 for one hour at 37° C. From this point onwards, all wash and incubation steps were performed at assay pH 6.0.

[5] = target: T1, recombinant human FcRn (Sino Biological …); assay: competition ELISA vs biotinylated parent murine antibody, captured FcRn, pH 6.0
Method: (§1) The following day, 1 μg/ml recombinant human FcRn (Sino Biological Inc. cat. no. CT009-H08H) diluted in PBS pH 7.4 was added to the wells and incubated for 1 hour at 37° C. After washing the plates 3× with PBST pH 7.4, the plates were blocked with PBSM pH 7.4 for 1 hour at 37° C. From this point onwards, all wash and incubation steps were performed at the chosen assay pH (pH 6.0 or 7.4).
(§2) Additional combinations of humanized affinity matured heavy chains and humanized affinity matured light chains were tested in the competition ELISA. Combinations of humanized affinity matured heavy chains and humanized non-affinity matured light chains also were tested.

[6] = target: T1, recombinant human FcRn (Sino Biological …); assay: competition ELISA vs biotinylated parent murine antibody, captured FcRn, pH 7.4
Method: as §1, §2

Kd [1]	Kd [2]	koff [3]	kon [3]	average relative IC50 [4]	average relative IC50 [5]	average relative IC50 [6]	Molecule
1010 nM	970 nM	–	–	–	–	–	human IgG4 (antibody)
763 nM	1250 nM	0.0824 s⁻¹	108000 M⁻¹ s⁻¹	–	–	–	human IgG1 (antibody)
–	–	–	–	0.53 relative to parent murine antibody	0.87 relative to chimeric parent murine antibody	0.89 relative to chimeric parent murine antibody	VH1_A8/Vκ1 IgG4 (antibody, V domains shown, Human IgG4, kappa) VH: QVQLVQSGAELKKPGASVKLSCKASGYTFTSYGISWVKQATGQGLEWIGEIYPRSGNTYYNEKFKGRATLTADKSTSTAYMELRSLKSEDSAVYFCARSTTVSPPAHWGTGTTVTVSS VL: DIQMTQSPSYLSASVGDRVTITCKASDHINNWLAWYQQKPGQAPRLLISGATSLETGVPSRFSGSGTGKDYTLTISSLQTEDFATYYCQQYWSTPYTFGGGTKVEIK
